Test results published in patent publication US20210171613A1 (NATIONAL RESEARCH COUNCIL OF CANADA, published 2021).

B1: A26.8 VHH mutant T54W (VHH, not shown: small tags and cut ends)
VHH: QVKLEESGGGLVQAGGSLRLSCAASERTFSRYPVAWFRQAPGAEREFVAVISSWGTSTYYADSVKGRFTISRDNAKVTVYLQMNNLKREDTAVYFCAVNSQRTRLQDPNEYDYWGQGTQVTVSS
B2: A26.8 VHH mutant T54Y (VHH, not shown: small tags and cut ends)
VHH: QVKLEESGGGLVQAGGSLRLSCAASERTFSRYPVAWFRQAPGAEREFVAVISSYGTSTYYADSVKGRFTISRDNAKVTVYLQMNNLKREDTAVYFCAVNSQRTRLQDPNEYDYWGQGTQVTVSS
B3: A26.8-Q101K,T103K (VHH, not shown: small tags and cut ends)
VHH: QVKLEESGGGLVQAGGSLRLSCAASERTFSRYPVAWFRQAPGAEREFVAVISSTGTSTYYADSVKGRFTISRDNAKVTVYLQMNNLKREDTAVYFCAVNSKRKRLQDPNEYDYWGQGTQVTVSS
B4: A26.8-T56I (VHH, not shown: small tags and cut ends)
VHH: QVKLEESGGGLVQAGGSLRLSCAASERTFSRYPVAWFRQAPGAEREFVAVISSTGISTYYADSVKGRFTISRDNAKVTVYLQMNNLKREDTAVYFCAVNSQRTRLQDPNEYDYWGQGTQVTVSS
B5: A26.8-N109R (VHH, not shown: small tags and cut ends)
VHH: QVKLEESGGGLVQAGGSLRLSCAASERTFSRYPVAWFRQAPGAEREFVAVISSTGTSTYYADSVKGRFTISRDNAKVTVYLQMNNLKREDTAVYFCAVNSQRTRLQDPREYDYWGQGTQVTVSS
B6: A26.8-T54R (VHH, not shown: small tags and cut ends)
VHH: QVKLEESGGGLVQAGGSLRLSCAASERTFSRYPVAWFRQAPGAEREFVAVISSRGTSTYYADSVKGRFTISRDNAKVTVYLQMNNLKREDTAVYFCAVNSQRTRLQDPNEYDYWGQGTQVTVSS
B7: A26.8-T56R, Q101K, T103K (VHH, not shown: small tags and cut ends)
VHH: QVKLEESGGGLVQAGGSLRLSCAASERTFSRYPVAWFRQAPGAEREFVAVISSTGRSTYYADSVKGRFTISRDNAKVTVYLQMNNLKREDTAVYFCAVNSKRKRLQDPNEYDYWGQGTQVTVSS
B8: A26.8-Q101K,T103R (VHH, not shown: small tags and cut ends)
VHH: QVKLEESGGGLVQAGGSLRLSCAASERTFSRYPVAWFRQAPGAEREFVAVISSTGTSTYYADSVKGRFTISRDNAKVTVYLQMNNLKREDTAVYFCAVNSKRRRLQDPNEYDYWGQGTQVTVSS
B9: A26.8-Q101K,T103M (VHH, not shown: small tags and cut ends)
VHH: QVKLEESGGGLVQAGGSLRLSCAASERTFSRYPVAWFRQAPGAEREFVAVISSTGTSTYYADSVKGRFTISRDNAKVTVYLQMNNLKREDTAVYFCAVNSKRMRLQDPNEYDYWGQGTQVTVSS
B10: A26.8-T56R, Q101K (VHH, not shown: small tags and cut ends)
VHH: QVKLEESGGGLVQAGGSLRLSCAASERTFSRYPVAWFRQAPGAEREFVAVISSTGRSTYYADSVKGRFTISRDNAKVTVYLQMNNLKREDTAVYFCAVNSKRTRLQDPNEYDYWGQGTQVTVSS

Columns and labels:
[1] = molecular target: T1, Clostridium difficile toxin A (TcdA) (Clostridium difficile, UniProt P16154 1-2710); test: SPR (Biacore 3000), VHH over immobilized TcdA; binding free energy difference relative to parent VHH
T1 construct: mature; also called full-length TcdA
Description: (§1) Before surface plasmon resonance (SPR) binding experiments, IMAC-purified VHHs were subjected to de-salting and further purification by size-exclusion chromatography (SEC). Approximately 500 μg of each VHH was injected over a Superdex 75 Increase 10/300 GL SEC column (GE Healthcare) in Biacore running buffer HBS-EP (10 mM HEPES pH 7.4, 150 mM NaCl, 3 mM EDTA, 0.005% (v/v) P20; GE Healthcare) under the control of an ÄKTA FPLC at 0.8 mL/min. Monomeric VHH fractions were collected and analyzed for binding to TcdA using a Biacore 3000 SPR instrument (GE Healthcare). Approximately 4,500 resonance units (RUs) of TcdA (List Biological Laboratories, Campbell, Calif.) were immobilized on a CM5 sensor chip (GE Healthcare) using the conditions previously described (Hussack et al, 2011). HBS-EP running buffer was used for all binding studies and regeneration of TcdA surfaces. Next, various dilution ranges of VHHs (as low as 10 nM-0.5 nM to as high as 5 μM-50 nM) were injected over immobilized TcdA at a flow rate of 40 μL/min with 120 s contact time and 600 s dissociation. Reference-subtracted sensorgrams were analyzed with BIAevaluation software (GE Healthcare) and fit to a 1:1 binding model. In cases where rapid kₒₙ and koff rate constants were observed, equilibrium dissociation constants (KDs) were determined by steady-state analysis.

[2] = molecular target: T1, Clostridium difficile toxin A (TcdA); test: SPR (Biacore 3000), VHH over immobilized TcdA, 1:1 fit
Description: as §1

[3] = molecular target: T1, Clostridium difficile toxin A (TcdA); test: SPR (Biacore 3000), VHH over immobilized TcdA; ratio of parent KD to mutant KD
Description: as §1

T1 sequence (P16154 whole entry): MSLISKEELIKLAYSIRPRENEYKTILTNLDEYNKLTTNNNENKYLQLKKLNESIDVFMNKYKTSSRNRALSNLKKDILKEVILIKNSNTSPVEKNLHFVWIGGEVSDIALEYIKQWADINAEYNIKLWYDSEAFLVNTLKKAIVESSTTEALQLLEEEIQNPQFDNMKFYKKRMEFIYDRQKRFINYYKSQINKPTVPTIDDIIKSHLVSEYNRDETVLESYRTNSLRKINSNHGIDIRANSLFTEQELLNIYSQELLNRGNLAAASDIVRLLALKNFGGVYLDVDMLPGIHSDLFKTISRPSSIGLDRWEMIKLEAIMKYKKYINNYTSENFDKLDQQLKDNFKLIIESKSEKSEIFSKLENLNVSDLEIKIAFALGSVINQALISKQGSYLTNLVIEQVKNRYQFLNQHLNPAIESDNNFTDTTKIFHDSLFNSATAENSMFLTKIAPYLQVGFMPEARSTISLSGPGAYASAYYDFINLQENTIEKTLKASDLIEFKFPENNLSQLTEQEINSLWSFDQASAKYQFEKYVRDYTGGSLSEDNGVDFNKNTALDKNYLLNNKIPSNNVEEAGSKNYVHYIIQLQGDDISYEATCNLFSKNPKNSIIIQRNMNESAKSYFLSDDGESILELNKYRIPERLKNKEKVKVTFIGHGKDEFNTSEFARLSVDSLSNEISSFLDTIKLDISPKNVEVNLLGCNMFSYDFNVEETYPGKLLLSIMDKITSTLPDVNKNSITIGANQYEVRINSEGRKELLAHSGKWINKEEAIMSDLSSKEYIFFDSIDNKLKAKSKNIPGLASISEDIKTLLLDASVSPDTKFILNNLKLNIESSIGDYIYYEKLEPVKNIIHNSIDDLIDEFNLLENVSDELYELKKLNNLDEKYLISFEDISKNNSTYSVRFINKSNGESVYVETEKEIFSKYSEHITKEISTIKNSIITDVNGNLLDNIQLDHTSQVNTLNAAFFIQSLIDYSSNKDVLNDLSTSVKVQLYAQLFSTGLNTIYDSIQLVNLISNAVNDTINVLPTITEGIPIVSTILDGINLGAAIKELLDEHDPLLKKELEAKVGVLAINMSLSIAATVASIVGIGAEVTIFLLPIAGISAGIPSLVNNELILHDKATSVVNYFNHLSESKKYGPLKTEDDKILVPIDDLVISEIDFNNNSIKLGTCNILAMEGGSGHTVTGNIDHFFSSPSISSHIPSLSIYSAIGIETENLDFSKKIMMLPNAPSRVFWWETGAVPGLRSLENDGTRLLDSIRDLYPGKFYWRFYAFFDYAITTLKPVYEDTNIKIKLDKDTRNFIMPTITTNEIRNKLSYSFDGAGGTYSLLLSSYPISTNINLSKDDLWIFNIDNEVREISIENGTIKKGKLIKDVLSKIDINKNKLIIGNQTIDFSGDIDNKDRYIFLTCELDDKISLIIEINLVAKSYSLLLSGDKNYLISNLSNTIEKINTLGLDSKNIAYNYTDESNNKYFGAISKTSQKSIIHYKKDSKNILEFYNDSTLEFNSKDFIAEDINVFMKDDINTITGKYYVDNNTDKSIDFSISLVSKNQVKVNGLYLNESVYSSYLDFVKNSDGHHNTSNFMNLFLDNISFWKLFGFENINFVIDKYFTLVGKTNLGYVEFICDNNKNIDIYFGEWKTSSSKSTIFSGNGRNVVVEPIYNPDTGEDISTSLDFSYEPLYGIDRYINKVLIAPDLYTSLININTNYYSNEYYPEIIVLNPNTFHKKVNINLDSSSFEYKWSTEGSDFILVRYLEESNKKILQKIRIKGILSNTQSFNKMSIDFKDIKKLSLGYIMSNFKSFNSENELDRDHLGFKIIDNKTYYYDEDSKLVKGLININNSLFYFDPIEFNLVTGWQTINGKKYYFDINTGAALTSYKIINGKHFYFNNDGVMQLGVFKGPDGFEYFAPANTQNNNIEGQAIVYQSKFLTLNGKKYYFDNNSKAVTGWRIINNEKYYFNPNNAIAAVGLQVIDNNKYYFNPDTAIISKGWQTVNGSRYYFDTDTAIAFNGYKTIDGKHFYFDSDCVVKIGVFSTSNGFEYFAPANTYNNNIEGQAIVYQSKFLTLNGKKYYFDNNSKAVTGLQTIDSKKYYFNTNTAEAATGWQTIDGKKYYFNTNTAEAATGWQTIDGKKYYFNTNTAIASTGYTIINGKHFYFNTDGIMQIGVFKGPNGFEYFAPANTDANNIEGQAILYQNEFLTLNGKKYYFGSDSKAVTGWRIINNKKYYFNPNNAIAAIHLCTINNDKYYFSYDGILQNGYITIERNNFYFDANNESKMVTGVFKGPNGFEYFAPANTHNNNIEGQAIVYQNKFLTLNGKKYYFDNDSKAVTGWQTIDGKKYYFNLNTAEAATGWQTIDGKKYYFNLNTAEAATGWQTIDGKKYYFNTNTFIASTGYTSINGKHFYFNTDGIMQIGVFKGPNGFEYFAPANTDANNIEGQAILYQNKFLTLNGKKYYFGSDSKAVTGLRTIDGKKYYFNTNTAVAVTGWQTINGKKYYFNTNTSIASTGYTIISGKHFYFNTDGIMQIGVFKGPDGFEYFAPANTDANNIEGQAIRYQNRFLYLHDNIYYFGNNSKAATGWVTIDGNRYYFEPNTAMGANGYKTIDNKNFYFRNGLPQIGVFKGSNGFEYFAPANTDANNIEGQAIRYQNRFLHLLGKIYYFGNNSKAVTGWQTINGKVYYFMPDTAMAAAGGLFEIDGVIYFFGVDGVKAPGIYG

Binder	ΔΔG [1]	Kd [2]	koff [2]	kon [2]	KD^WT/KD [3]
B1	0.37 kcal/mol	35 nM	0.0561 s⁻¹	1.61e+06 M⁻¹ s⁻¹	0.5
B2	0.43 kcal/mol	38.9 nM	0.0694 s⁻¹	1.81e+06 M⁻¹ s⁻¹	0.5
B3	-0.48 kcal/mol	8.21 nM	0.0396 s⁻¹	4.96e+06 M⁻¹ s⁻¹	2.3
B4	-0.19 kcal/mol	13.6 nM	0.0262 s⁻¹	1.94e+06 M⁻¹ s⁻¹	1.4
B5	-0.17 kcal/mol	13.9 nM	0.0268 s⁻¹	1.95e+06 M⁻¹ s⁻¹	1.3
B6	-0.2 kcal/mol	13.2 nM	0.044 s⁻¹	3.55e+06 M⁻¹ s⁻¹	1.4
B7	-1.03 kcal/mol	3.19 nM	0.0467 s⁻¹	1.47e+07 M⁻¹ s⁻¹	5.9
B8	-0.87 kcal/mol	4.2 nM	0.0226 s⁻¹	5.45e+06 M⁻¹ s⁻¹	4.5
B9	-0.49 kcal/mol	8.02 nM	0.0265 s⁻¹	3.31e+06 M⁻¹ s⁻¹	2.3
B10	-0.88 kcal/mol	4.13 nM	0.0497 s⁻¹	1.24e+07 M⁻¹ s⁻¹	4.5
